We go through one molecule from patent US20100092494A1 (BOARD OF TRUSTEES OF THE UNIVERSITY OF ILLINOIS, published 2010).

The target of data set [1] is T1, human basigin-2 (human, UniProt P35613 140-385).
T1 construct: Endogenous glycosylated protein of HESC uterine fibroblasts and CCL-2 (HeLa) cells, found in the membrane fraction; also called basigin isoform 2; 50 kDa basigin protein
T1 sequence: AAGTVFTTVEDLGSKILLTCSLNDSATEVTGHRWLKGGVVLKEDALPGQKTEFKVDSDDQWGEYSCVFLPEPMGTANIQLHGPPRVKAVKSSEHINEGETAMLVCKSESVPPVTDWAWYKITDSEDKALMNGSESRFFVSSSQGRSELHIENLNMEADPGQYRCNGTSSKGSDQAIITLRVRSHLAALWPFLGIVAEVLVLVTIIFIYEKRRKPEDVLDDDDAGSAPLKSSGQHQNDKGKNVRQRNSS
Briefly: Sulfo-SBED biotin label transfer on HESC and CCL-2 cells, basigin immunoprecipitation, neutravidin-HRP blot. The procedure: Biotin label transfer from rBSG to CCL-2 cells (HeLa) was performed by treating cells with increasing concentrations of SEED-labeled rBSG (0, 0.05, 0.5, 5, and 50 μg/ml) for 10 minutes at 37° C. Following 5 minutes of UV light treatment, cells were washed twice with PBS and total cell lysates collected using IP buffer. Proteins from labeled cells were precipitated with either neutravidin beads (FIGS. 7A and 7B) or immunoprecipitated with the P2C2 mAb (FIGS. 7C and 7D). Precipitated proteins were resolved by 15% SDS-PAGE in duplicate, and immunoblotted with either Streptavidin-HRP (FIGS. 7A and 7C) or with the R&D Systems anti-hEMMPRIN pAb (FIGS. 7B and 7D). The Santa Cruz goat anti-rabbit (anti-mouse, anti-human depleted)-HRP secondary antibody used for this experiment was previously shown to not cross-react with the P2C2 mAb. The basigin-2 band is indicated with an arrowhead and the basigin-3/rBSG band is indicated with an arrow. This experiment was performed twice with similar results.
Immunoprecipitation and Immunoblot Analysis. Immunoprecipitation of basigin was performed using the monoclonal antibody P2C2. Ten to […] of antibody added to 1 mg soluble protein was incubated overnight at 4° C. with rocking, and immune complexes were collected on protein G SEPHAROSE beads for 4 hours at 4° C. Immunoprecipitated proteins were resolved by SDS-PAGE using standard methods. […]

Data set [2] concerns the molecule itself. Briefly: PFO-PAGE and immunoblot. (A western blot detects proteins with antibodies after separation by electrophoresis.)

B1: recombinant human basigin extracellular domain construct (rBSG) (ligand)
chain: WSHPQFEKAGTVFTTVEDLGSKILLTCSLNDSATEVTGHRWLKGGVVLKEDALPGQKTEFKVDSDDQWGEYSCVFLPEPMGTANIQLHGPPRVKAVKSSEHINEGETAMLVCKSESVPPVTDWAWYKITDSEDKALMNGSESRFFVSSSQGRSELHIENLNMEADPGQYRCNGTSSKGSDQAIITLRVRSHLHHHHHH
notes: also called recombinant basigin; soluble rBSG
For B1, the binding result in data set [1] and in data set [2] was “binds” each time.
